B1: Hammerhead Ribozyme (parent)
chain: ACCGGAUGUGCUUUCCGGUCUGAUGAGUCCGUGAGGACGAAACAG

Variants of: B1
Test: self-cleavage, relative activity (ratio to wild type); higher = more cleavage; co-transcriptional

| Variant | self-cleavage |
| --- | --- |
| U13G G36A | 0.628 |
| U32G G39U | 0.317 |
| C3A G25C | 0.344 |
| A34G G36U | 0.419 |
| U19G A26U | 0.332 |
| G31C C43A | 0.392 |
| G17A G39C | 0.333 |
| C30U A37G | 1.21 |
| A23G C43A | 0.304 |
| U12C U24A | 1.04 |
| A1C A41G | 0.328 |
| G8A G31A | 0.849 |
| G8A G31U | 1.14 |
| U21A U24C | 0.329 |
| U12A G36A | 0.571 |
| G36C | 0.52 |
| G10A C16G | 0.812 |
| C15U A34G | 0.813 |
| C2A A26G | 0.293 |
| U9A U24C | 1.38 |
| U9A U24A | 1.2 |

| Variant | self-cleavage |
| --- | --- |
| U7C G31A | 1.12 |
| U7C G36A | 0.421 |
| U9G U24C | 0.919 |
| G36C A44C | 0.383 |
| U19A G27A | 0.34 |
| U21G C43U | 0.317 |
| G27C A42G | 0.267 |
| C2A A44G | 0.989 |
| G5A C11A | 1.43 |
| G10A A37G | 0.639 |
| U9A U32G | 0.539 |
| A23U U32G | 0.41 |
| G8C A42G | 0.311 |
| G8U A34U | 0.792 |
| U12G G31U | 1.11 |
| U12G G25C | 0.337 |
| C20G C29G | 0.35 |
| A1C G35C | 0.406 |
| A23U A34G | 0.358 |
| U19A G36U | 0.302 |
| A1C A6U | 0.381 |

| Variant | self-cleavage |
| --- | --- |
| C11A C20A | 0.452 |
| C3U C16G | 0.492 |
| G22A A42C | 0.335 |
| C2G G22C | 0.296 |
| A41C | 0.376 |
| C16A C30U | 1.32 |
| G5C G35A | 0.362 |
| A6G A40C | 0.355 |
| C3G G31C | 0.527 |
| C16G G33C | 0.956 |
| A34G A42G | 0.264 |
| C3U A40U | 0.36 |
| G36U G45C | 0.454 |
| G10U U13A | 1.48 |
| U9A G25U | 0.342 |
| G10U U24A | 1.01 |
| U12C G31C | 0.913 |
| G10C A40G | 0.398 |
| U13C G35A | 0.552 |
| U14G G18C | 0.533 |
| U7C U12G | 1.43 |

| Variant | self-cleavage |
| --- | --- |
| C2U C38U | 1.21 |
| C11U A44C | 0.474 |
| A34U A44C | 0.447 |
| G10C C38A | 0.79 |
| G17A G18C | 0.341 |
| A44C G45C | 1.14 |
| A42U C43G | 0.255 |
| A42U C43U | 0.247 |
| G4U U19G | 0.343 |
| C11U G35C | 0.588 |
| A26U G31U | 0.748 |
| A42G | 0.336 |
| C29U G45C | 0.443 |
| U28G A34U | 0.475 |
| U12A G45A | 0.678 |
| U13G A37C | 0.96 |
| C2U G5U | 0.535 |
| G17A C30U | 0.622 |
| C20U U21A | 0.358 |
| G10A A34U | 0.919 |
| C38U G45C | 0.529 |
